# According to patent US20080287363A1 (LABORATOIRES SERONO, published 2008):
# B1: CCL13/MCP-4 (ligand)
# chain: not shown
# B2: XCL1/lymphotactin (ligand)
# chain: VGSEVSDKRTCVSLTTQRLPVSRIKTYTITEGSLRAVIFITKRGLKVCADPQATWVRDVVRSMDRKSNTRNNMIQTKPTGTQQSTNTAVTLTG
# Target: recombinant Δ6 evasin-4 (truncated, N-terminally 6His tagged evasin-4, amino acids 24-127), purified (Rhipicephalus sanguineus)
# Assay: SPR (Biacore 3000), Δ6 evasin-4 immobilized on CM4 chip, chemokine injected
row,Binder,binding result
1,B1,no binding (tested: 0.1 µg/ml)
2,B2,no binding (tested: 0.1 µg/ml)
